For orientation: Kd means the free concentration of one partner at which half of the binding sites on the other are occupied at equilibrium, for simple one-to-one binding.

The target of assay [1] is T1, soluble ICAM-1 (Bender MedSystems) (UniProt P05362 28-480, limits assumed).
T1 construct: Bought soluble protein coated on the ELISA plate
Description: ELISA on plate-coated soluble ICAM-1, His-tagged scFv detected with anti-His-HRP. How it is done:
(§1) To evaluate the binding affinity of histidine-tagged human single chain (hsc) proteins soluble ICAM was used in an ELISA assay. A 96-well EIA plate (Corning, Inc.) was coated with 100 μl/well soluble ICAM-1 (Bender MedSystems) at 1 μg/ml in 0.1 M. NaHCO₃. After washing with TBST (50 mM Tris, pH8.0, 150 mM NaCl, 0.05% Tween-20), the plate was blocked with 3% non-fat milk in TBST at 37° C. for 1 hour. After washing with TBST, the plate was incubated with scFv samples (100 μl/well) diluted in 1% non-fat milk/TBST solution at room temperature for 1 hour. After washing with TBST, the horse radish peroxidase-conjugated anti-His (C-term) antibody (Invitrogen) diluted 1:2000 in 1% non-fat milk/TBST was added and the plate was incubated at room temperature for 1 hour. The plate was washed thoroughly with TBST and 100 μl/well 3,3′,5,5′-tetramethylbenzidine substrate solution (Kirkegaard and Perry Laboratories) was added. After 5 min incubation, the color development was stopped by adding […] 0.12 N HCl and the absorbance of the wells at 450 nm was measured by a plate reader (ICN).
On the technique in general: An ELISA detects its analyte on a solid surface through an enzyme-linked reagent.

Assay [2] addresses T2, ICAM-1 on HeLa cells (UniProt P05362 28-532, limits assumed). Description: cell-based or functional assay.
Assay [3] has as its target T1, soluble ICAM-1 (Bender MedSystems). Description: ELISA on plate-coated soluble ICAM-1; reference Msc1A6. How it is done: as §1
Assay [4] has as its target T2, ICAM-1 on HeLa cells. Description: cell-based or functional assay. The source holds these as a separate data set.

Residue numbers refer to the chain shown, from its start.

T2 sequence (P05362 28-532 limits assumed): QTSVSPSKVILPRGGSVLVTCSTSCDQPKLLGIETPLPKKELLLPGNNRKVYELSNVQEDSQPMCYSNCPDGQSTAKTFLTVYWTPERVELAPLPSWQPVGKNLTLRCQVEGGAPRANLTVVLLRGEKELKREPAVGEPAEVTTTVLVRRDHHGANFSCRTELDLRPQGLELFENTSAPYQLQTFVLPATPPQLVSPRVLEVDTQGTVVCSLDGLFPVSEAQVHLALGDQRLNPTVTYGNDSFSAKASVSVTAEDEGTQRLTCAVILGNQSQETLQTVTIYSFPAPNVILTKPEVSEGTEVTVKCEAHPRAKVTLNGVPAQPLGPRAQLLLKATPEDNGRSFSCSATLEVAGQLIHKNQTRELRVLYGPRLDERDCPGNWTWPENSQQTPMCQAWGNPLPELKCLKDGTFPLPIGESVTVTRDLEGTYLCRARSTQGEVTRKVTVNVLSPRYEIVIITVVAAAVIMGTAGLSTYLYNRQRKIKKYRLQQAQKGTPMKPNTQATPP
T1 sequence (P05362 28-480 limits assumed): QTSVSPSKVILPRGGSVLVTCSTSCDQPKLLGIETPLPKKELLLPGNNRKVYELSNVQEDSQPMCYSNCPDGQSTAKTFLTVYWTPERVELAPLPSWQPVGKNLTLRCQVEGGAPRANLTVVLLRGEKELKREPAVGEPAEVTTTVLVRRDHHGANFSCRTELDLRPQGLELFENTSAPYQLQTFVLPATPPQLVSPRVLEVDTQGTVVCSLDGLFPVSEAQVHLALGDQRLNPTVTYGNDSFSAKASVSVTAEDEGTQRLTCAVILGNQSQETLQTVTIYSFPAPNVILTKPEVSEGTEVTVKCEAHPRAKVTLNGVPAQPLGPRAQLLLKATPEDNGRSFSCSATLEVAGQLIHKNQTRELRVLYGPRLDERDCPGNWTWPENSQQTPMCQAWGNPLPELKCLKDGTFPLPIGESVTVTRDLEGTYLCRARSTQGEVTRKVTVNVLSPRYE

B1: HscD (humanized 1A6 scFv HumD) (scFv)
scFv: DIQMTQSPSSLSASVGDRVTITCRASQSISNNLHWYQQKPGKAPKLLIYHASQSISGVPSRFSGSGSGTDFTLTISSLQPEDFATYYCQQSNSWPYTFGQGTKVEIKRGGGGSGGGGSGGGGSGGGGSEVQLVESGGGLVQPGGSLRLSCAASGFNIKDTYIHWVRQAPGKGLEWVARIDPANDNTIYADSVKGRFTISSDDSKNTAYLQMNSLRAEDTAVYYCTTSGYWFAYWGQGTLVTVSS
notes: not shown: carboxy-terminal His tag of vector pBAD/pIII A
In the case of B1, the affinity in assay [1], expressed as Kd, was 23.3 nM. Further, the “EC 50 (µM): 50% protection of HeLa cells against HRV15 infection at 1 MOI” value (from here on “EC 50 (µM): 50% protection of HeLa cells”) with ICAM-1 on HeLa cells [2] was 0.05 µM. The “fold higher binding affinity than the parental mouse scFv” value in assay [3] is above 10 fold.

B2: HscB (humanized 1A6 scFv HumB) (scFv)
scFv: B1 scFv with T226A
notes: also called Hum19; Hum 19 scFv; not shown: carboxy-terminal His tag of vector pBAD/pIII A
Consider B2, for which the “EC50 of protection of HeLa cells from HRV infection, against the parental mouse 1A6 scFv protein” value with ICAM-1 on HeLa cells [4] was above 60 fold. This molecule showed a Kd in assay [1] of 26.2 nM. In addition, the “fold higher binding affinity than the parental mouse scFv” value in assay [3] was above 10 fold.

B3: HscC (humanized 1A6 scFv HumC) (scFv)
scFv: B1 scFv with S200G
notes: as for B1
In the case of B3, in assay [1], binding was put at a Kd of 58 nM. Moreover, the “fold higher binding affinity than the parental mouse scFv” value in assay [3] is above 10 fold.

B4: HscA (humanized 1A6 scFv HumA) (scFv)
scFv: B1 scFv with T226D
notes: also called humanized scFv A; scFV3; not shown: carboxy-terminal His tag of vector pBAD/pIII A
In assay [1], B4 showed a Kd of 150 nM. Besides, in assay [3], the “fold higher binding affinity than the parental mouse scFv” value was above 10 fold.

B5: HscH (humanized 1A6 scFv HumH) (scFv)
scFv: B1 scFv with Y49K, A189D, D190P, S191K, K193Q, S200A
notes: as for B1
In the case of B5, the affinity in assay [1], expressed as Kd, was 20.9 nM. For the same molecule, the “EC 50 (µM): 50% protection of HeLa cells” value in the assay with ICAM-1 on HeLa cells [2] is 4.2 µM. In assay [3], the “fold higher binding affinity than the parental mouse scFv” value was above 10 fold.

B6: HscF (humanized 1A6 scFv HumF) (scFv)
scFv: B1 scFv with S200A
notes: as for B1
Consider B6, for which the Kd in assay [1] worked out at 46 nM. In addition, the “EC 50 (µM): 50% protection of HeLa cells” value in the assay with ICAM-1 on HeLa cells [2] came out at 0.29 µM. In addition, the “fold higher binding affinity than the parental mouse scFv” value in assay [3] is above 10 fold.

B7: HscI (humanized 1A6 scFv HumI) (scFv)
scFv: B1 scFv with Y49K, V165M, A189D, D190P, S191K, K193Q, I198M, S200A, D202T
notes: as for B1
In assay [1], B7 gave a Kd of 150 nM. Also, the “EC 50 (µM): 50% protection of HeLa cells” value with ICAM-1 on HeLa cells [2] was above 10 µM. Moreover, the “fold higher binding affinity than the parental mouse scFv” value in assay [3] was above 10 fold.

B8: Msc1A6 (parental mouse monoclonal antibody 1A6 in the form of scFv) (scFv, V domains shown)
VH: EVQLQQSGAELVKPGASLKLSCTASGFNIKDTYIHWMKQRPEQGLEWIGRIDPANDNTIYDPKVQGKATMTADTSSNTAYLQLNSLTSEDTAVYYCTTSGYWFAYWGQGTLVTVSS
VL: DIVLTQSPATLSVTPGDSVSLSCRASQSISNNLHWYQQKHSESPRLLIKHASQSISGIPSRFSGSGSGTDFTLSINSVETEDFGMFFCQQSNSWPYTFGGGTKLEIKR
notes: Tested as a single-chain Fv (one polypeptide); also called Mouse 1A6 scFv; mouse IA6 scFv
In turn, B8 came in with a dissociation constant Kd in assay [1] of 1180 nM. In addition, the “EC 50 (µM): 50% protection of HeLa cells” value with ICAM-1 on HeLa cells [2] is above 10 µM.

These data come from patent US20140308269A1 (published 2014).
